# According to patent publication US20260092115A1 (Chugai, published 2026):
# T1: human FcγRIIb extracellular domain, His-tagged (human, UniProt P31994 43-217)
# T1 construct: extracellular domain; also called hFcγR IIb
# T1 sequence (looked up): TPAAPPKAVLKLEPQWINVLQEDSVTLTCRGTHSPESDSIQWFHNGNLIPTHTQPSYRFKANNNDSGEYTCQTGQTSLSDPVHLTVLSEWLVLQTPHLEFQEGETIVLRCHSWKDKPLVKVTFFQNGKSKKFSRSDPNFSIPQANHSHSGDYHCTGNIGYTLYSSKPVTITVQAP
# T2: human FcγRIIa, type H, extracellular domain, His-tagged (human, UniProt P12318 34-217)
# T2 construct: extracellular domain; also called hFcγR IIa H
# T2 sequence (looked up): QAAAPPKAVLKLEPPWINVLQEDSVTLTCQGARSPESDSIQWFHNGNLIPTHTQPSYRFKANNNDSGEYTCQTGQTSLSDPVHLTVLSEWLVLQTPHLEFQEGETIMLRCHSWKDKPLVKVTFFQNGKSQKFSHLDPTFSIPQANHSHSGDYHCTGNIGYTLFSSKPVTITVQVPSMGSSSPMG
# T3: human FcγRIIa, type R, extracellular domain, His-tagged (human, UniProt P12318 34-217)
# T3 construct: extracellular domain; also called hFcγR IIa R
# T3 sequence (looked up): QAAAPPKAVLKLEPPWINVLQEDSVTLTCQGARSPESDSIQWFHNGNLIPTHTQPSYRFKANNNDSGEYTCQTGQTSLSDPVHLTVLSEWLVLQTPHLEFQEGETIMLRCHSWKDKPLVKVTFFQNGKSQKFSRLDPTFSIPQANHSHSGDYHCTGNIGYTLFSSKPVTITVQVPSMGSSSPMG
# Assays:
# [1] = molecular target: T1, human FcγRIIb extracellular domain, …; experiment: binding amount of this antibody divided by that of 04H1637-G1m/04L1610-lam1; SPR pH 7.4
# Procedure: (§1) The interaction between the generated antibodies and human FcγRs was analyzed by the following method using Biacore T200. 50 mM Na-Phosphate, 150 mM NaCl, 0.05% Tween20 (pH 7.4) was used as the running buffer, and the assay was performed at 25° C. For the sensor chips, Series S SA (GE Healthcare) chips onto which CaptureSelect Human Fab-lambda Kinetics Biotin Conjugate (Thermo Fisher Scientific) was immobilized were used. The antibodies of interest were captured onto these chips and each FcγR diluted in the running buffer was allowed to interact with them. Chips were regenerated with 10 mM Glycine-HCl (pH 1.5) and 25 mM NaOH, and assay was performed by repeatedly capturing antibodies. The dissociation constants KD (mol/L) for FcγRs of each antibody were calculated using Biacore T200 Evaluation Software 2.0, using the 1:1 Langmuir binding model for FcγRIa and FcγRIIIa and the steady state affinity model for FcγRIIa. For FcγRIIb, the binding amount of FcγRIIb per unit amount of antibody was calculated by correcting the binding amount of FcγRIIb obtained from the sensorgram obtained by the measurement with the amount of antibody captured onto the chip surface.
# (§2) “Relative value to KD between G1m and hFcRn” and “Relative value to KD between G1m and hFcγRs” are values obtained by dividing the KD value of 04H1637-G1m/04L1610-lam1 for hFcRn and for each FcγR by the KD value of each variant, respectively. “Relative binding amount” indicates the value obtained by dividing the binding amount of each variant to FcγRIIb by the binding amount of 04H1637-G1m/04L1610-lam1. […] It was shown that all of the generated heterodimerized antibodies had enhanced binding to FcγRIIa and FcγRIIIa as compared with 04H1637-G1m/04L1610-lam1 which has the constant region of native human IgG1.
# [2] = molecular target: T1, human FcγRIIb extracellular domain, …; experiment: SPR Biacore T200, 25C, pH 7.4; FcγRIIb at 1000 nM, corrected by captured antibody
# Procedure: as §1
# human FcRn = molecular target: T4, human FcRn (human, UniProt P55899 24-290; P61769 21-119); experiment: KD of 04H1637-G1m/04L1610-lam1 divided by KD of this antibody; SPR pH 6.0
# T4 construct: Prepared by the method of WO 2010/107110; also called hFcRn
# Procedure: The interaction between the generated antibodies and human FcRn was analyzed by the following method using Biacore T200. 50 mM Na-Phosphate, 150 mM NaCl, 0.05% Tween20 (pH 6.0) was used as the running buffer, and the assay was performed at 25° C. For the sensor chip, Series S SA (GE Healthcare) chips onto which CaptureSelect Human Fab-lambda Kinetics Biotin Conjugate (Thermo Fisher Scientific) was immobilized were used. The antibodies of interest were captured onto these chips and FcRn diluted in the running buffer was allowed to interact with them. Chips were regenerated with 10 mM Glycine-HCl (pH 1.5) and 25 mM NaOH, and assay was performed by repeatedly capturing antibodies. The dissociation constant for FcRn of each antibody was calculated using the steady state model, using Biacore T200 Evaluation Software 2.0.
# “Relative value to KD between G1m and hFcRn” and “Relative value to KD between G1m and hFcγRs” are values obtained by dividing the KD value of 04H1637-G1m/04L1610-lam1 for hFcRn and for each FcγR by the KD value of each variant, respectively. “Relative binding amount” indicates the value obtained by dividing the binding amount of each variant to FcγRIIb by the binding amount of 04H1637-G1m/04L1610-lam1. […] It was shown that all of the generated heterodimerized antibodies had enhanced binding to FcγRIIa and FcγRIIIa as compared with 04H1637-G1m/04L1610-lam1 which has the constant region of native human IgG1. Furthermore, 04H1637-Kn462/04L1610-lam1//04H1637-H1441/04L1610-lam1, 04H1637-Kn462/04L1610-lam1//04H1637-H1445/04L1610-lam1, and 04H1637-Kn461/04L1610-lam1//04H1637-H1443/04L1610-lam1 were all shown to have enhanced binding to FcγRIIa compared to 04H1637-Kn125/04L1610-lam1//04H1637-H1076/04L1610-lam 1 which has the Fc region variant reported in WO 2013/002362.
# [3] = molecular target: T5, human FcγRIa extracellular domain, His-tagged (human, UniProt P12314 16-292); experiment: KD of 04H1637-G1m/04L1610-lam1 divided by KD of this antibody; SPR pH 7.4
# T5 construct: also called hFcγR Ia
# Procedure: as §1, §2
# [4] = molecular target: T6, human FcγRIIIa, allotype V158, extracellular domain, His-tagged (human, UniProt P08637 17-208); experiment: as above
# T6 construct: extracellular domain; also called hFcγR IIIa V
# Procedure: as §1, §2
# [5] = molecular target: T2, human FcγRIIa, type H, extracellular …; experiment: as above
# Procedure: as §1, §2
# [6] = molecular target: T7, human FcγRIIIa, allotype F158, extracellular domain, His-tagged (human, UniProt P08637 17-208); experiment: as above
# T7 construct: extracellular domain; also called hFcγR IIIa F
# Procedure: as §1, §2
# [7] = molecular target: T3, human FcγRIIa, type R, extracellular …; experiment: as above
# Procedure: as §1, §2
# T5 sequence (P12314 16-292): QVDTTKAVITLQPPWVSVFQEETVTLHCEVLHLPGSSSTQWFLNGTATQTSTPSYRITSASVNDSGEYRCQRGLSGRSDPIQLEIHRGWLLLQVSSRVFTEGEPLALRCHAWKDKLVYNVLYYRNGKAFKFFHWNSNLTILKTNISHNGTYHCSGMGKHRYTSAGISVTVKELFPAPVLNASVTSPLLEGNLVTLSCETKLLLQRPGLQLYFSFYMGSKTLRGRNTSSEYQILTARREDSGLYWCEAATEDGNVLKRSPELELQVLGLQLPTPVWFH
# T6 sequence (P08637 17-208 F176V): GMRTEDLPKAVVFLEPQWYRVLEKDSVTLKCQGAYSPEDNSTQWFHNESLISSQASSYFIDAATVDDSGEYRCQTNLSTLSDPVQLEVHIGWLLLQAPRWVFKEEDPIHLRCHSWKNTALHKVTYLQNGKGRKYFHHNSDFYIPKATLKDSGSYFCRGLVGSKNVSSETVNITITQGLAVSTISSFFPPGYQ
# T7 sequence (P08637 17-208): as the sequence (P08637 17-208 F176V) above, with V160F counted along it
Relative binding amount [1],Binding amount [2],Relative value to KD between G1m and hFcRn (human FcRn),Relative value to KD between G1m and hFcγRs [3],Relative value to KD between G1m and hFcγRs [4],Relative value to KD between G1m and hFcγRs [5],Relative value to KD between G1m and hFcγRs [6],Relative value to KD between G1m and hFcγRs [7],Binder
2.7 ratio,0.022 RU per RU of captured antibody,2.3 ratio,1.5 ratio,152 ratio,6.5 ratio,495 ratio,7.7 ratio,"04H1654-KT481/04L1610-lam1//04H1656-HT498/04L1610-lam1 (antibody, IgG1, Heterodimerized IgG1 Fc variant with N434A/Y436T/Q438R/S440E) heavy 1: QVQLVESGGGVVQPGGSLRLSCAASGFTFSSKTMNWVRQAPGKGLEWVSSISTQSHYIYYARSVRGRFTISRDNAKNSLYLQMNSLRAEDTAVYYCARYGKREDMLWVFDYWGQGTLVTVSSASTKGPSVFPLAPSSKSTSGGTAALGCLVKDYFPEPVTVSWNSGALTSGVHTFPAVLQSSGLYSLSSVVTVPSSSLGTQTYICNVNHKPSNTKVDKRVEPKSCDKTHTCPPCPAPEFQWGPMVFLFPPKPKDVLMISRTPEVTCVVVDVSDEEPEVKFNWYVDGVEVHNAKTKPREEQYNATYRVVSVLPVLHQDWLNGKEYKCKVSNDALPAPEEKTISKAKGQPREPQVYTLPPSRKEMTKNQVSLTCLVKGFYPSDIAVEWESNGQPENNYKTTPPVLDSDGSFFLYSKLTVDKSRWQQGNVFSCSVMHEALHAHTTRKELSLSP heavy 2: QVQLVESGGGVVQPGGSLRLSCAASGFTFSSKTMNWVRQAPGKGLEWVSSISTQSHYIYYAESVRGRFTISRDNAKNSLYLQMNSLRAEDTAVYYCARYGAREDMLWVFDYWGQGTLVTVSSASTKGPSVFPLAPSSKSTSGGTAALGCLVKDYFPEPVTVSWNSGALTSGVHTFPAVLQSSGLYSLSSVVTVPSSSLGTQTYICNVNHKPSNTKVDKRVEPKSCDKTHTCPPCPAPELLAGPSVFLFPPKPKDVLMISRTPEVTCVVVDVSHEEPEVKFNWYVDGVEVHNAKTKPREEQYNATYRVVSVLPVLHQDWLNGKEYKCKVSNDALPAPEEETISKAKGQPREPQVYTLPPSREEMTKNQVSLTCLVKGFYPSDIAVEWESNGQPENNYKTTPPVLDSDGSFFLYSKLTVDKSRWQQGNVFSCSVMHEALHAHTTREELSLSP light: QSALTQPPSASGSPGQSVTISCEGPSTGVGDYNWVHWYQQHPGKAPKLMIYFTSKKPSGVPDRFSGSKSGNTASLTVSGLQAEDEADYYCQTYAAPLGPMFGGGTKLTVLGQPKAAPSVTLFPPSSEELQANKATLVCLISDFYPGAVTVAWKADSSPVKAGVETTTPSKQSNNKYAASSYLSLTPEQWKSHRSYSCQVTHEGSTVEKTVAPTECS"
2.8 ratio,0.022 RU per RU of captured antibody,2.2 ratio,1.1 ratio,145 ratio,6.4 ratio,479 ratio,7.6 ratio,"04H1654-KT481/04L1612-lam1//04H1656-HT498/04L1612-lam1 (antibody, IgG1, Heterodimerized IgG1 Fc variant with N434A/Y436T/Q438R/S440E) heavy 1: QVQLVESGGGVVQPGGSLRLSCAASGFTFSSKTMNWVRQAPGKGLEWVSSISTQSHYIYYARSVRGRFTISRDNAKNSLYLQMNSLRAEDTAVYYCARYGKREDMLWVFDYWGQGTLVTVSSASTKGPSVFPLAPSSKSTSGGTAALGCLVKDYFPEPVTVSWNSGALTSGVHTFPAVLQSSGLYSLSSVVTVPSSSLGTQTYICNVNHKPSNTKVDKRVEPKSCDKTHTCPPCPAPEFQWGPMVFLFPPKPKDVLMISRTPEVTCVVVDVSDEEPEVKFNWYVDGVEVHNAKTKPREEQYNATYRVVSVLPVLHQDWLNGKEYKCKVSNDALPAPEEKTISKAKGQPREPQVYTLPPSRKEMTKNQVSLTCLVKGFYPSDIAVEWESNGQPENNYKTTPPVLDSDGSFFLYSKLTVDKSRWQQGNVFSCSVMHEALHAHTTRKELSLSP heavy 2: QVQLVESGGGVVQPGGSLRLSCAASGFTFSSKTMNWVRQAPGKGLEWVSSISTQSHYIYYAESVRGRFTISRDNAKNSLYLQMNSLRAEDTAVYYCARYGAREDMLWVFDYWGQGTLVTVSSASTKGPSVFPLAPSSKSTSGGTAALGCLVKDYFPEPVTVSWNSGALTSGVHTFPAVLQSSGLYSLSSVVTVPSSSLGTQTYICNVNHKPSNTKVDKRVEPKSCDKTHTCPPCPAPELLAGPSVFLFPPKPKDVLMISRTPEVTCVVVDVSHEEPEVKFNWYVDGVEVHNAKTKPREEQYNATYRVVSVLPVLHQDWLNGKEYKCKVSNDALPAPEEETISKAKGQPREPQVYTLPPSREEMTKNQVSLTCLVKGFYPSDIAVEWESNGQPENNYKTTPPVLDSDGSFFLYSKLTVDKSRWQQGNVFSCSVMHEALHAHTTREELSLSP light: QSALTQPPSASGSPGQSVTISCEGPSTGVGDYTYVHWYQQHPGKAPKLMIYFTSKKPSGVPDRFSGSKSGNTASLTVSGLQAEDEADYYCQTYAAPLGPMFGGGTKLTVLGQPKAAPSVTLFPPSSEELQANKATLVCLISDFYPGAVTVAWKADSSPVKAGVETTTPSKQSNNKYAASSYLSLTPEQWKSHRSYSCQVTHEGSTVEKTVAPTECS"
